Assay results: publication PMC12714136, “14-3-3θ phosphorylation at S232 reduces its interactome and regulates axonal trafficking” (Disease Models & Mechanisms, 2025)

Biological target: T1, nuclear distribution protein nude-like 1 (M17 neuroblastoma cells) (human (endogenous in SK-N-BE(2)-M17), UniProt Q9GZM8 1-345)
T1 construct: nuclear distribution protein nudE-like 1, endogenous in SK-N-BE(2)-M17 cells; also called NDEL1; source: endogenous, SK-N-BE(2)-M17 neuroblastoma cells (fixed cells)
T1 sequence (looked up): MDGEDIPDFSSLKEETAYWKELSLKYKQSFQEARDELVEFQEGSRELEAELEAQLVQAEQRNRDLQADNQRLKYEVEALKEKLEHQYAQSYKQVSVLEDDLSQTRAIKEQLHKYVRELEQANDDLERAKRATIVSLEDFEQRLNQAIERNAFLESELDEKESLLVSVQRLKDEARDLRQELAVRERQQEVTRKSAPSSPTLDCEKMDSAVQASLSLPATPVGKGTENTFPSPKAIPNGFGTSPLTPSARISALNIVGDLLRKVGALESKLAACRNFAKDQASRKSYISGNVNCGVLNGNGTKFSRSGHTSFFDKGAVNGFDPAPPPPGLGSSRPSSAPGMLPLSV
Test: proximity ligation; fixed M17 cells stably expressing V5-tagged 14-3-3θ S232A or S232D; anti-V5 with anti-NDEL1 or anti-BCR antibody; DuoLink probes; objects per area, normalised
Details: partners not purified

B1: V5-tagged 14-3-3θ S232A (natural protein, UniProt P27348 1-245, looked up)
chain: MEKTELIQKAKLAEQAERYDDMATCMKAVTEQGAELSNEERNLLSVAYKNVVGGRRSAWRVISSIEQKTDTSDKKLQLIKDYREKVESELRSICTTVLELLDKYLIANATNPESKVFYLKMKGDYFRYLAEVACGDDRKQTIDNSQGAYQEAFDISKKEMQPTHPIRLGLALNFSVFYYEILNNPELACTLAKTAFDEAIAELDTLNEDSYKDSTLIMQLLRDNLTLWTSDAAGEECDAAEGAEN
notes: 14-3-3 protein theta with S232A; also called V5-14-3-3θ phospho-mutant S232A; source: SK-N-BE(2)-M17 cells, stably transfected (fixed cells)
fold PLA signal against S232D: ~2 fold
